Measured values from article PMC6827426 (Translational Vision Science & Technology, 2019).

B1: RBZ–3 (Fab, V domains shown)
VH: EVQLVESGGGLVQPGGSLRLSCAASGYDFTHYGMNWVRQAPGKGLEWVGWINTYTGEPTYAADFKRRFTFSLDTSKSTAYLQMNSLRAEDTAVYYCAKYPYYYGTSHWYFDVWGQGTLVTVSS
VL: DIQLTQSPSSLSASVGDRVTITCSASQDISNYLNWYQQKPGKAPKVLIYDTSDLESGVPSRFSGSGSGTDFTLTISSLQPEDFATYYCQQYSTVPWTFGQGTKVEIK
notes: as the light chain of m1 (ranibizumab) before CDR-L1; CDR-L1, same as ranibizumab; as the light chain of m1 (ranibizumab) between CDR-L1 and CDR-L2; CDR-L2, changed from FTSSLHS of ranibizumab; as the light chain of m1 (ranibizumab) after CDR-L2; as the heavy chain of m1 (ranibizumab Fab), unchanged; Charge variant, relative charge -3 against ranibizumab; changes only in CDR-L2; also called TA_2; …
B2: RBZ+7 (Fab, V domains shown)
VH: EVQLVESGGGLVQPGGSLRLSCAASGYDFTHYGMNWVRQAPGKGLEWVGWINTYTGEPTYAADFKRRFTFSLDTSKSTAYLQMNSLRAEDTAVYYCAKYPYYYGTSHWYFDVWGQGTLVTVSS
VL: DIQLTQSPSSLSASVGDRVTITCRARQGIRNYLNWYQQKPGKAPKVLIYKTSRRHSGVPSRFSGSGSGTDFTLTISSLQPEDFATYYCQQYSTVPWTFGQGTKVEIK
notes: as the light chain of m1 (ranibizumab) before CDR-L1; as the light chain of m1 (ranibizumab) between CDR-L1 and CDR-L2; CDR-L2, changed from FTSSLHS of ranibizumab; as the light chain of m1 (ranibizumab) after CDR-L2; as the heavy chain of m1 (ranibizumab Fab), unchanged; Charge variant, relative charge +7 against ranibizumab; also called TA_3; source: E. coli, 10 L fermentation, purified …
B3: RBZ-HI high (Fab, V domains shown)
VH: EVQLVESGGGLVQPGGSLRLSCAASGYDFTHYGMNWVRQAPGKGLEWVGWINTYTGEPTYAADFKRRFTFSLDTSKSTAYLQMNSLRAEDTAVYYCAKYPYYYGTSHWYFDVWGQGTLVTVSS
VL: DIQLTQSPSSLSASVGDRVTITCSVSQVISSWLAWYQQKPGKAPKVLIYFASSLQTGVPSRFSGSGSGTDFTLTISSLQPEDFATYYCQQYSTVPWTFGQGTKVEIK
notes: as the light chain of m1 (ranibizumab) before CDR-L1; as the light chain of m1 (ranibizumab) between CDR-L1 and CDR-L2; CDR-L2, changed from FTSSLHS of ranibizumab; as the light chain of m1 (ranibizumab) after CDR-L2; as the heavy chain of m1 (ranibizumab Fab), unchanged; Hydrophobicity variant; source: E. coli, 10 L fermentation, purified (Protein G-Sepharose, cation exchange Hitrap SP HP)
B4: RBZ-HI low (Fab, V domains shown)
VH: EVQLVESGGGLVQPGGSLRLSCAASGYDFTHYGMNWVRQAPGKGLEWVGWINTYTGEPTYAADFKRRFTFSLDTSKSTAYLQMNSLRAEDTAVYYCAKYPYYYGTSHWYFDVWGQGTLVTVSS
VL: DIQLTQSPSSLSASVGDRVTITCQASQDISNSLNWYQQKPGKAPKVLIYSTSNLHSGVPSRFSGSGSGTDFTLTISSLQPEDFATYYCQQYSTVPWTFGQGTKVEIK
notes: as for B3

Target: T1, vascular endothelial growth factor (VEGF) (Homo sapiens, UniProt P15692-4)
T1 construct: vascular endothelial growth factor (VEGF-A); The SPR paragraph says only 'immobilized VEGF'; also called recombinant human VEGF
T1 sequence (P15692 whole entry): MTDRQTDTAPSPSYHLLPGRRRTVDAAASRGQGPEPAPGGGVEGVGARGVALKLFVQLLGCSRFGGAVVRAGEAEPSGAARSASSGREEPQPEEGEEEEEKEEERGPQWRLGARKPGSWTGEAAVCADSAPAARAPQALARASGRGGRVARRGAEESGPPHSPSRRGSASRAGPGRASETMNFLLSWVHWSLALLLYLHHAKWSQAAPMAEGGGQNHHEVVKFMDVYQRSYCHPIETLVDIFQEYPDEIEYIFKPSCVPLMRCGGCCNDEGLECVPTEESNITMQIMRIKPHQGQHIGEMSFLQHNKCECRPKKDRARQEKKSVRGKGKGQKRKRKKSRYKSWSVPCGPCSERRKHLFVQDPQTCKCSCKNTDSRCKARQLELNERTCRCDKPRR
Test: SPR; Biacore T200; VEGF immobilised, Fabs as analyte
Settings: both partners purified

Binder | Kd [nM]
B1 | < 5
B2 | < 5
B3 | < 5
B4 | < 5
